Measured values reported in publication doi:10.1101/366336.

What follows are binders tested against hPcf11 (in CF II);hClp1 (human;human, UniProt O94913;Q92989 1-1555;1-425, |) (assay: EMSA).
hPcf11 (in CF II);hClp1, sequence (O94913 whole entry, chain 1 of 2): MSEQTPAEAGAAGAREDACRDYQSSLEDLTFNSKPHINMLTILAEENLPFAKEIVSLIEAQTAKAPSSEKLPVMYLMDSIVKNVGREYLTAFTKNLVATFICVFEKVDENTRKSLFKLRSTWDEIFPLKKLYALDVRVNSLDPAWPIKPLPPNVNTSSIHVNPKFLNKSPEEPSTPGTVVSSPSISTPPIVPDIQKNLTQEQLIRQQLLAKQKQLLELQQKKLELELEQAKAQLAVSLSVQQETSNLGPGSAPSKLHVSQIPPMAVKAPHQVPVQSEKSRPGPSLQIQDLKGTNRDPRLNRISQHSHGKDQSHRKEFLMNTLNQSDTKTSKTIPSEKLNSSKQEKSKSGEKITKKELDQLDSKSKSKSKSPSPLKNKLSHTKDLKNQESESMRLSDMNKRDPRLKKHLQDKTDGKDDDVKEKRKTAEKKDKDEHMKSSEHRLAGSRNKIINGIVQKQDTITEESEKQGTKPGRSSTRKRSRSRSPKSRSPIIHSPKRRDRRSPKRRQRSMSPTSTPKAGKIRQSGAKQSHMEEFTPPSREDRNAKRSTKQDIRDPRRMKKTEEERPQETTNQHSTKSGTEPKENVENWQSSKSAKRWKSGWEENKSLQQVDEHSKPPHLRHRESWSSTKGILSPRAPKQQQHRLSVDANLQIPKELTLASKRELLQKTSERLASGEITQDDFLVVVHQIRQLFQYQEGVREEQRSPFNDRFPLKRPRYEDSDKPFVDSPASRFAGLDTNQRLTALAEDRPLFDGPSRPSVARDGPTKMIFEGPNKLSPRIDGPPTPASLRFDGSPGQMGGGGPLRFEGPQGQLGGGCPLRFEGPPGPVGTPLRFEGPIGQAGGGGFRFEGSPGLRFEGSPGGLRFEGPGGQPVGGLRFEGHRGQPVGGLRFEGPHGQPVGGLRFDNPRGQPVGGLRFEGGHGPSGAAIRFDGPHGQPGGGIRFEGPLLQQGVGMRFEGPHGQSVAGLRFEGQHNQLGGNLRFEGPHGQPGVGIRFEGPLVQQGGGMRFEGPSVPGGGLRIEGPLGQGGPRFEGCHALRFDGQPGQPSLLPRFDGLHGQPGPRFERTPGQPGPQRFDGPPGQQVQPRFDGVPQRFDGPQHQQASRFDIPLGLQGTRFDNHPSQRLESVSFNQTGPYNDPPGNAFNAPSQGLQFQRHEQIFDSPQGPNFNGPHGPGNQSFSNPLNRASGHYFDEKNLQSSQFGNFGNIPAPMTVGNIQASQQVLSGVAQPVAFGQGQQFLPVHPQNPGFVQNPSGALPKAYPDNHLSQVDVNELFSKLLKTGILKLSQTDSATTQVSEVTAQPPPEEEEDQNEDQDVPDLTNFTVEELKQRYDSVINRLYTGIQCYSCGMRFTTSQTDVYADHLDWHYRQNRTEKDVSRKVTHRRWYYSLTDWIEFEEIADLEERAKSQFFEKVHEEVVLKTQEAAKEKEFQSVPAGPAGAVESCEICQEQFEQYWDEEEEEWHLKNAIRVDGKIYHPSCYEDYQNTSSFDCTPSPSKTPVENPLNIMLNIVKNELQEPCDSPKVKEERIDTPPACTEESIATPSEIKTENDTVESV
hPcf11 (in CF II);hClp1, sequence (Q92989 whole entry, chain 2 of 2): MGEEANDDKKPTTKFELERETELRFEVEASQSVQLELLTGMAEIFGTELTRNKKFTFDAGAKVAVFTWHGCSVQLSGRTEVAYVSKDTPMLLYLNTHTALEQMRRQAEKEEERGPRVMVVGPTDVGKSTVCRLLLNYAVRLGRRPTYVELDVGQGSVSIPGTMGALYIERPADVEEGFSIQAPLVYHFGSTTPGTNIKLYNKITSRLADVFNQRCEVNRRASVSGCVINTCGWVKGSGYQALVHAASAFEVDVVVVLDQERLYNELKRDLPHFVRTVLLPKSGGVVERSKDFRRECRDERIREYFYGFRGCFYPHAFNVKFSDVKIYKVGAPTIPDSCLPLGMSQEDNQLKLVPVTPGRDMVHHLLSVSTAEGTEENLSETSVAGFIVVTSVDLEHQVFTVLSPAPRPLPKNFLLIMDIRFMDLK
Work on GGGUUUAAGUGGGUCACG (ssRNA) [BS2-d1] yielded a Kd of 13 nM.
GGGUUUAAGUGGGUCACGUUUAAAC (ssRNA) [BS2] showed a Kd of 11 nM.
With GGGGGGGGGGGGG (ssRNA) [G13] the Kd was 21 ± 12 nM.
For GGGGGGGGGGGG (ssRNA) [G12], the Kd was 21 ± 9 nM.
In the case of GGUUCAGGGGGAGGUGUGGGAGG (ssRNA) [202-224], the Kd is reported as 0.8 nM.
Binder GGGGGGGGGGG (ssRNA) [G11] has a Kd of 41 nM.
GGGGGAGGUGUGGGAGGU (ssRNA) [208-225] gave a Kd of 2.6 nM.
GGGGGAGGUGUGGGAGG (ssRNA) [208-224] showed a Kd of 5.2 nM.
Binder UUUAAGUGGGUCACG (ssRNA) [BS2-d3] has a Kd of 105 nM.
CCCUUUAAGUGGGUCACG (ssRNA) [BS2-d2] was tested, and the Kd was 54 nM.
